Like-named read-outs stand apart in the source and are kept apart here.
How the values were obtained:
[1] = target: T1, human TIGIT expressed on HEK293A cells (human, UniProt Q495A1 22-244); test: FACS, HEK293A/human TIGIT cells, serially diluted antibody (protocol of Example 5) [A]
T1 construct: also called HEK293A/human TIGIT cells
T1 sequence: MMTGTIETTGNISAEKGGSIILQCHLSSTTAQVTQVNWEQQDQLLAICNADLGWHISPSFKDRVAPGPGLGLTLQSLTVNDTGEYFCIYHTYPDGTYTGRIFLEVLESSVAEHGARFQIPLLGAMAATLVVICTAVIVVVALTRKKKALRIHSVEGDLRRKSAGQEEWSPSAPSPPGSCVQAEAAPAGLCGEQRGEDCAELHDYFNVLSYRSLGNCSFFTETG
Experimental: (§1) After incubated at 4° C. for 1 h, plates were washed 3 times with PBST. Then, APC coupled Goat Anti-Mouse IgG (Cat #: 405308, BioLegend, US) diluted 500x was added to the plates. After incubation at 4° C. for 1 h, the plates were washed with PBS for 3 times and then cell fluorescence was monitored using a FACS machine (BD).

[2] = target: T2, monkey TIGIT expressed on HEK293A cells (monkey); test: FACS, HEK293A/monkey TIGIT cells, serially diluted antibody (protocol of Example 5) [B]
T2 construct: also called HEK293A/monkey TIGIT cells
T2 sequence (chain, as listed by the source limits assumed): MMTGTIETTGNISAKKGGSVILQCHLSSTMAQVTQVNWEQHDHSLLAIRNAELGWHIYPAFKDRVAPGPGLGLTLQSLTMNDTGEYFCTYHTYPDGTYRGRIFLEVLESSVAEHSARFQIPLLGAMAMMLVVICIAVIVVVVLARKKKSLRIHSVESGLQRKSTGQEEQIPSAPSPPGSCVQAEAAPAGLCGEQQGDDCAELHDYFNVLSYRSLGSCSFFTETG
Experimental: as §1

TIGIT (ECD)-hFc [3] = target: T3, TIGIT (ECD)-hFc (human, UniProt Q495A1 22-141); test: FACS blocking assay (protocol of Example 7): serially diluted antibody pre-incubated with TIGIT (ECD)-hFc, then binding of TIGIT (ECD)-hFc to A549/human PVR cells measured; blocked ligand: human PVR
T3 construct: bought protein; also called recombinant human TIGIT (ECD)-hFc; Cat #: 10917-H02H, Sino Biological; not shown: human Fc (hFc) of the bought protein
T3 sequence: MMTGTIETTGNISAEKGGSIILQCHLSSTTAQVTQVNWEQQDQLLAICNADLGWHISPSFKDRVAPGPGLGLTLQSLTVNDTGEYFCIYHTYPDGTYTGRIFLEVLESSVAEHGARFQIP
Experimental: (§2) After incubated at 4° C. for 1 h, plates were washed 3 times with PBST and then added with PE coupled Goat Anti-human IgG (Cat #: PAI-86078, Thermofisher, US) diluted 500×. After incubation at 4° C. for 1 h, the plates were washed with PBST for 3 times and then cell fluorescence was monitored using a FACS machine (BD).

[4] = target: T1, human TIGIT expressed on HEK293A cells; test: FACS on HEK293A/human TIGIT cells
Experimental: as §1

[5] = target: T2, monkey TIGIT expressed on HEK293A cells; test: FACS on HEK293A/monkey TIGIT cells
Experimental: as §1

human TIGIT (ECD)-his [6] = target: T4, human TIGIT (ECD)-his (human, UniProt Q495A1 22-141); test: ELISA, coated human TIGIT (ECD)-his (table head says FACS)
T4 construct: bought protein; also called hTIGIT(ECD)-his; Cat #: 10917-H08H, Sino Biological; not shown: his tag of the bought protein
T4 sequence: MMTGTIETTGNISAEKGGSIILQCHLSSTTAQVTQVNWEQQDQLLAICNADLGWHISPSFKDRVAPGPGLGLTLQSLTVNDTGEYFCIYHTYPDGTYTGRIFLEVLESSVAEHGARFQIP
Experimental: Plates were washed for 3 times with PBST (PBS+0.05% Tween20), added with Goat-anti-mouse IgG-HRP (Cat #: A9309-1 ml, Sigma, US) diluted 5000×, and incubated for 1 h at room temperature. Plates were incubated with freshly prepared Ultra-TMB (Cat #: 555214, BD, US) for 5 minutes at room temperature for color development.

TIGIT (ECD)-hFc [7] = target: T3, TIGIT (ECD)-hFc; test: FACS blocking assay: antibody preincubated with TIGIT (ECD)-hFc, binding to A549/human PVR cells
Experimental: as §2

[8] = target: T1, human TIGIT expressed on HEK293A cells; test: cell-based or functional assay
monkey TIGIT (ECD)-hFc [9] = target: T5, monkey TIGIT (ECD)-hFc (monkey (cynomolgus)); test: ELISA, coated monkey TIGIT (ECD)-hFc (table head says FACS)
T5 construct: bought protein; also called cynoTIGIT(ECD)-hFc; cynomolgus TIGIT (ECD)-hFc; not shown: human Fc (hFc) of the bought protein

monkey TIGIT (ECD)-hFc [10] = target: T5, monkey TIGIT (ECD)-hFc; test: SPR (BIAcore 8K), monkey TIGIT (ECD)-hFc on CM5 chip, antibody injected
[11] = target: T1, human TIGIT expressed on HEK293A cells; test: FACS, HEK293A/human TIGIT cells, serially diluted antibody (protocol of Example 5) [A]; remark: listed apart in the source
TIGIT (ECD)-hFc [12] = target: T3, TIGIT (ECD)-hFc; test: FACS blocking assay (protocol of Example 7): serially diluted antibody pre-incubated with TIGIT (ECD)-hFc, then binding of TIGIT (ECD)-hFc to A549/human PVR cells measured; blocked ligand: human PVR [B]
human TIGIT (ECD)-his [13] = target: T4, human TIGIT (ECD)-his; test: SPR (BIAcore 8K), human TIGIT (ECD)-his on CM5 chip, antibody injected
Experimental: They were also tested in SPR assays for their binding affinities to human and monkey TIGITs using the BIAcore™ 8K instrument (GE Life Sciences, US). […] The binding affinities were calculated with the RUs of blank controls subtracted. The association rate (kₐ) and dissociation rate (kd) were calculated using the one-to-one Langmuir binding model (BIA Evaluation Software, GE Life Sciences, US). The equilibrium dissociation constant KD was calculated as the kd/kₐ ratio.

B1: chimeric 70E11 (antibody, human IgG1, kappa, V domains shown)
VH: QVQLQQPGTDLVKPGASVRMSCKASGYTFTSYNVHWVKQTPGQGLEWIGTIYPGNLATSYNQKFKGKATLTADKSSTTAYMQLSSLTSEDSAVYYCARSGTMDYWGQGTTLTVSS
VL: ENVVTQSPAIMSASPGEKVTMTCRASSSISSTYLHWYQQKSGASPKLWIYNTQNLASGVPARISGSGSGTSYSLTISSVEAEDAATYYCQQFGGYPLITFGAGTKLELKR
notes: mouse variable regions with human IgG1/kappa constant regions; also called chimeric antibody 70E11
[1]
  EC50 (read off the curve): ~0.2 µg/mL
[2]
  EC50 (read off the curve): ~0.2 µg/mL
TIGIT (ECD)-hFc [3]
  IC50 (read off the curve): ~3 µg/mL

B2: mouse 70E11 (antibody, V domains shown)
VH: QVQLQQPGTDLVKPGASVRMSCKASGYTFTSYNVHWVKQTPGQGLEWIGTIYPGNLATSYNQKFKGKATLTADKSSTTAYMQLSSLTSEDSAVYYCARSGTMDYWGQGTTLTVSS
VL: ENVVTQSPAIMSASPGEKVTMTCRASSSISSTYLHWYQQKSGASPKLWIYNTQNLASGVPARISGSGSGTSYSLTISSVEAEDAATYYCQQFGGYPLITFGAGTKLELK
notes: also called antibody from clone 70E11
[4]
  EC50: 0.56 nM
[5]
  EC50: 0.39 nM
Human TIGIT (ECD)-his [6]
  EC50: 0.82 nM
TIGIT (ECD)-hFc [7]
  EC50: 43 nM

B3: Tiragolumab (antibody, V domains shown)
VH: EVQLQQSGPGLVKPSQTLSLTCAISGDSVSSNSAAWNWIRQSPSRGLEWLGKTYYRFKWYSDYAVSVKGRITINPDTSKNQFSLQLNSVTPEDTAVFYCTRESTTYDLLAGPFDYWGQGTLVTVSS
VL: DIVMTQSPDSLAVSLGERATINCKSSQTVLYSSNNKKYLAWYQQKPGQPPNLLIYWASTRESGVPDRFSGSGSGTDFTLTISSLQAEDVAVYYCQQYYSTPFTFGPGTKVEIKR
[8]
  NK92-mediated ADCC against HEK293A/human TIGIT cells, EC50: 0.0465 nM
[4]
  EC50: 0.44 nM
[5]
  EC50: 0.9 nM
Monkey TIGIT (ECD)-hFc [9]
  EC50: 0.14 nM
Monkey TIGIT (ECD)-hFc [10]
  Kd: 0.0622 nM
[1]
  EC50 (read off the curve): ~0.2 µg/mL
[2]
  EC50 (read off the curve): ~0.2 µg/mL

B4: chimeric 149G11 (antibody, human IgG1, kappa, V domains shown)
VH: QVQLQQSGTELVRPGTSVKMSCRTAGYTFTNYWIHWVKQRPGHGLEWIGDIYPGGRYSNYNEKFRGKATLTADTSSSTAYMELSSLTSEDSAIYYCARYYESAMDFWGQGTSVTVSS
VL: DIVMSQSPSSLAVSVGEKVTVNCKSSQNLLYNSNQKSYLAWFQQKPGQSPKLLIYWASTRESGVPDRFTGSGSGTDFTLTISSVKAEDLAVYYCQQYYNYPFTFGSGTKLEIKR
notes: mouse variable regions with human IgG1/kappa constant regions; also called chimeric antibody 149G11
[1]
  EC50 (read off the curve): ~0.2 µg/mL
[11]
  EC50 (read off the curve): ~0.2 µg/mL
[2]
  EC50 (read off the curve): ~0.5 µg/mL
TIGIT (ECD)-hFc [3]
  IC50 (read off the curve): ~3 µg/mL

B5: mouse 149G11 (antibody, V domains shown)
VH: QVQLQQSGTELVRPGTSVKMSCRTAGYTFTNYWIHWVKQRPGHGLEWIGDIYPGGRYSNYNEKFRGKATLTADTSSSTAYMELSSLTSEDSAIYYCARYYESAMDFWGQGTSVTVSS
VL: DIVMSQSPSSLAVSVGEKVTVNCKSSQNLLYNSNQKSYLAWFQQKPGQSPKLLIYWASTRESGVPDRFTGSGSGTDFTLTISSVKAEDLAVYYCQQYYNYPFTFGSGTKLEIK
notes: also called antibody from clone 149G11
[4]
  EC50: 0.1 nM
[5]
  EC50: 1.2 nM
Human TIGIT (ECD)-his [6]
  EC50: 0.86 nM
TIGIT (ECD)-hFc [7]
  EC50: 41 nM

B6: 149G11-VH3VL2 (antibody, human IgG1, kappa, V domains shown)
VH: QVQLVQSGAEVKKPGASVKVSCKASGYTFTNYWIHWVKQAPGQGLEWIGDIYPGGRYSNYNEKFRGRVTLTADTSTSTVYMELSSLTSEDTAVYYCARYYESAMDFWGQGTTVTVSS
VL: DIVMTQSPDSLAVSLGERATINCKSSQNLLYNSNQKSYLAWFQQKPGQPPKLLIYWASTRESGVPDRFSGSGSGTDFTLTISSLQAEDLAVYYCQQYYNYPFTFGAGTKLELKR
notes: humanized, human IgG1/kappa
[8]
  NK92-mediated ADCC against HEK293A/human TIGIT cells, EC50: 0.013 nM
[11]
  EC50 (read off the curve): ~0.2 µg/mL
TIGIT (ECD)-hFc [12]
  IC50 (read off the curve): ~2 µg/mL

B7: 149G11-VH2VL3 (antibody, human IgG1, kappa, V domains shown)
VH: QVQLVQSGAEVKKPGASVKVSCKASGYTFTNYWIHWVRQAPGQGLEWIGDIYPGGRYSNYNEKFRGRVTLTADTSTSTVYMELSSLTSEDTAVYYCARYYESAMDFWGQGTTVTVSS
VL: DIVMTQSPDSLAVSLGERATVNCKSSQNLLYNSNQKSYLAWFQQKPGQSPKLLIYWASTRESGVPDRFSGSGSGTDFTLTISSLQAEDLAVYYCQQYYNYPFTFGAGTKLELKR
notes: humanized, human IgG1/kappa; also called 149G11H2L3
[8]
  NK92-mediated ADCC against HEK293A/human TIGIT cells, EC50: 0.00795 nM
Human TIGIT (ECD)-his [13]
  Kd: 0.00329 nM
[11]
  EC50 (read off the curve): ~0.2 µg/mL
TIGIT (ECD)-hFc [12]
  IC50 (read off the curve): ~2 µg/mL

B8: 149G11-VH4VL2 (antibody, human IgG1, kappa, V domains shown)
VH: QVQLVQSGAEVKKPGASVKVSCKASGYTFTNYWIHWVKQRPGHGLEWIGDIYPGGRYSNYNEKFRGRVTLTADTSTSTVYMELSSLTSEDTAVYYCARYYESAMDFWGQGTTVTVSS
VL: DIVMTQSPDSLAVSLGERATINCKSSQNLLYNSNQKSYLAWFQQKPGQPPKLLIYWASTRESGVPDRFSGSGSGTDFTLTISSLQAEDLAVYYCQQYYNYPFTFGAGTKLELKR
notes: humanized, human IgG1/kappa
[8]
  NK92-mediated ADCC against HEK293A/human TIGIT cells, EC50: 0.0184 nM
Human TIGIT (ECD)-his [13]
  Kd: 0.00309 nM
[11]
  EC50 (read off the curve): ~0.2 µg/mL
TIGIT (ECD)-hFc [12]
  IC50 (read off the curve): ~2 µg/mL

B9: 149G11-VH3VL3 (antibody, human IgG1, kappa, V domains shown)
VH: QVQLVQSGAEVKKPGASVKVSCKASGYTFTNYWIHWVKQAPGQGLEWIGDIYPGGRYSNYNEKFRGRVTLTADTSTSTVYMELSSLTSEDTAVYYCARYYESAMDFWGQGTTVTVSS
VL: DIVMTQSPDSLAVSLGERATVNCKSSQNLLYNSNQKSYLAWFQQKPGQSPKLLIYWASTRESGVPDRFSGSGSGTDFTLTISSLQAEDLAVYYCQQYYNYPFTFGAGTKLELKR
notes: humanized, human IgG1/kappa
[8]
  NK92-mediated ADCC against HEK293A/human TIGIT cells, EC50: 0.014 nM
[11]
  EC50 (read off the curve): ~0.2 µg/mL
TIGIT (ECD)-hFc [12]
  IC50 (read off the curve): ~2 µg/mL

B10: 149G11-VH4VL3 (antibody, human IgG1, kappa, V domains shown)
VH: QVQLVQSGAEVKKPGASVKVSCKASGYTFTNYWIHWVKQRPGHGLEWIGDIYPGGRYSNYNEKFRGRVTLTADTSTSTVYMELSSLTSEDTAVYYCARYYESAMDFWGQGTTVTVSS
VL: DIVMTQSPDSLAVSLGERATVNCKSSQNLLYNSNQKSYLAWFQQKPGQSPKLLIYWASTRESGVPDRFSGSGSGTDFTLTISSLQAEDLAVYYCQQYYNYPFTFGAGTKLELKR
notes: humanized, human IgG1/kappa
[8]
  NK92-mediated ADCC against HEK293A/human TIGIT cells, EC50: 0.0177 nM
Human TIGIT (ECD)-his [13]
  Kd: 0.0022 nM
[11]
  EC50 (read off the curve): ~0.2 µg/mL
TIGIT (ECD)-hFc [12]
  IC50 (read off the curve): ~2 µg/mL
